# Measurements reported in patent US20240150460A1 (SHENGHE CHINA BIOPHARMACEUTICAL, published 2024).
# Numbering of substitutions follows the chain as printed.
# T1: human NKp30-his protein (KACTUS; Cat: NKP-HM430) (human, UniProt O14931 19-135, limits assumed)
# T1 construct: Bought protein (KACTUS NKP-HM430); not shown: His tag
# T1 sequence (looked up): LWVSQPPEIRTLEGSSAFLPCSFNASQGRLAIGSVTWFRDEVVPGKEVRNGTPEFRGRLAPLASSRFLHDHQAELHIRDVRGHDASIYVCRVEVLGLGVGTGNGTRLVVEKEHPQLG
# B1: antibody 18-hu1 (antibody, V domains shown)
# VH: EVQLVESGGGLVQPGGSLRLSCAASGIRFSIANMGWYRQAPGKLHEMVSGITSDGFTNYADSVKGRFTISRDNSKNTLYLQMNSLRAEDTAVYYCAKFPTRHYWGQGTLVTVSS
# B2: antibody 18-hu2 (antibody, V domains shown)
# VH: B1 VH with S49A
# B3: antibody 10-hu4 (antibody, V domains shown)
# VH: EVQLVESGGGLVQPGGSLRLSCAASGITFSRSVMGWFRQAPGKLRELVAGITSDDNTDYADSVKGRFTISRDNSKNTLYLQMNSLRAEDTAVYYCNILPDSRLGWGQGTLVTVSS
# B4: antibody 10 (antibody, V domains shown)
# VH: B3 VH with E1Q, R19T, A24V, S74A, L78V, R86K, A87P, L110Q
# notes: expressed in CHO cells; also called chimeric antibody 10
# B5: antibody 10-hu1 (antibody, V domains shown)
# VH: B3 VH with A49S, N96A, I97R
# B6: antibody 10-hu2 (antibody, V domains shown)
# VH: B3 VH with N96A, I97R
# B7: antibody 10-hu3 (antibody, V domains shown)
# VH: B3 VH with N96A
# B8: antibody 10-hu5 (antibody, V domains shown)
# VH: B3 VH with A24V
# B9: antibody 23-hu44 (antibody, V domains shown)
# VH: EVQLVESGGGLVQPGGSLRLSCAASGSIFSPNGIGWYRQAPGKGRELVSGITGNGLTDYAESVKGRFTISRDNSKNTVYLQMNSLRAEDTAVYYCALLLNHAEWGQGTLVTVSS
# B10: antibody 23-hu49 (antibody, V domains shown)
# VH: B9 VH with G33A, G44L, S49A, A96N
# B11: antibody 1 (antibody, V domains shown)
# VH: QLQLVESGGGTVQTGGSLRLACVVSGPTYSFYDMGWFRRAPGKEREFVAAVTASGDTTIYADSVKGRFTIARDNAKNTVYLQMNSLKSEDTGAYYCAAGEYSSTAATYYYWGQGTQVTVSS
# notes: expressed in CHO cells
# B12: antibody 11 (antibody, V domains shown)
# VH: EVQLVESGGGLVQPGESLRLSCVASGGDFRFKSMGWYRQAPGKLRELVAGITTGGVTDYADSVKGRFTISRDNANKAVWLQMNRLKPDDTAVYDCNTLGAAAYDWGQGTQVTVSS
# notes: expressed in CHO cells
# B13: antibody 12 (antibody, V domains shown)
# VH: EVQLVESGGDLVQPGGSLRLSCAAFGSSFSIDMMGWYRQVPGKQRELVAGITKGGFADYADSVKGRFTISMDAAKNTVYLQMNSLKPEDTAVYYCNTLPTHSDWGQGTQVTVSS
# notes: expressed in CHO cells
# B14: antibody 19 (antibody, V domains shown)
# VH: B13 VH with L4V
# notes: expressed in CHO cells
# B15: antibody 13 (antibody, V domains shown)
# VH: EVQLVESGGGLVQPGGSLRLSCAASGGIFGSTHMGWYRQAPGKLREMVAGITSTGNHRNVADSVKGRFTISKDNAKNTLYLQMNSLKPEDTAVYYCNSFPDQVFNWGQGTQVTVSS
# notes: expressed in CHO cells
# B16: antibody 2 (antibody, V domains shown)
# VH: QVQLVESGGGLVQPGGSLRLSCAASGSIFSVNEMGWYRQAPGKLRELVAAITSDGTTAYADSVKGRFTISRDNAKNTVYLQMNSLKPEDTAVYDCNTWPEARGDWGQGTQVTVSS
# notes: expressed in CHO cells
# B17: antibody 14 (antibody, V domains shown)
# VH: B16 VH with V2L, A24V, G26A, E100Q
# notes: expressed in CHO cells
# B18: antibody 15 (antibody, V domains shown)
# VH: EVQLVESGGGSVQTGGSLRLSCAASGPTFNFYGMAWFRQAPGKEREFVASIIPGSGDTSYASSVRGRFTISEDNARNNAYLQMNTLKPEDTAVYYCAAGTGGIYSSDYPYWGQGTQVTVSS
# notes: expressed in CHO cells
# B19: antibody 16 (antibody, V domains shown)
# VH: EVQLVESGGGLVQAGGSLRLSCAASGISLITYNMGWYRQAPGKLRELVAGITTGGITDYTDSVKGRFTISRDNAKNTLYLQMNSLKPEDTAVYYCDTLGMANYWGQGTQVTVSS
# notes: expressed in CHO cells
# B20: antibody 17 (antibody, V domains shown)
# VH: QLQLVESGGGLVQPGGSLRLSCAASGSIDSINAMGWYRQAPGKLRELVAGITRGGDVNYADSVKGRFTISRVDARNTVTVYLQMNSLKPEDTAVYYCNNLGFPSDWAQGTQVTVSS
# notes: expressed in CHO cells
# B21: antibody 20 (antibody, V domains shown)
# VH: EVQLVESGGGLVQPGGSLRLSCAASGSAFSIEPWGWYRQAPGQLRELVAGITSDDKTDYADSVKDRFTISRDNAKNTVFLQMNSLKPEDTAVYYCNVLGWPRDDYWGQGTQVTVSS
# notes: expressed in CHO cells
# B22: antibody 21 (antibody, V domains shown)
# VH: EVQLVESGGGLVQPGGSLRLSCAASGSTYAFYNMGWFRQRPGKEREFAAAILWGRSGVYTTYADSVKGRFTISRDNAQNTVYLQMNSLKPEDTAVYYCAAGLGTMRANEYDYWGQGTQVTVSS
# notes: expressed in CHO cells
# B23: antibody 22 (antibody, V domains shown)
# VH: QVQLVESGGGLVQPGGSLRLSCAASGSIFSANVMGWYRQAPGKLRELVAGMHSGGSANYADSVKGRFTISKDNAKNTMYLQMNSLKPEDTAVYYCNFGLGFDGHDYWGQGTQVTVSA
# notes: expressed in CHO cells
# B24: antibody 3 (antibody, V domains shown)
# VH: QLQLVESGGGLVQTGDSTKLSCTASGRSFSINDMGWYRQAPGKLRELVAGITSGGSTNYADSVKGRFTISRDNAKNTVYLQMNSLKPEDTAVYYCNVLGWPDFGSWGQGTQVTVSS
# notes: expressed in CHO cells
# B25: antibody 4 (antibody, V domains shown)
# VH: QVQLVESGGGLVQPGGSLRLSCAASGSIFKINAMGWYRQAPGKLRELVAGITSGGSTNYADSVKGRFTISRDNAKNTLYLQMNSLKPDDTAVYYCNQLGFPQYWGQGTQVTVSS
# notes: expressed in CHO cells
# B26: antibody 5 (antibody, V domains shown)
# VH: EVQVVESGGGLVQAGGSLTLSCAASGRPFSTFPTSMGWFRQAPGKEREFVAAISESGLNTYYRDSVKGRFGISRDNAKNTVYLQMNTLTAEDTAVYFCAAAPGYMTTDSQYYLGNKYQYWGQGTQVTVSS
# notes: expressed in CHO cells
# B27: antibody 6 (antibody, V domains shown)
# VH: QVQLVESGGGLVQPGGSLRLSCAASRAIFPEYSIAWFRQAPGKEREGVALVSRIGDRVDYADSVKGRFTISRDNAKNTVYLQMNSLKPEDTAVYHCAAGQLSSSTYYGDEYVYWGQGTQVTVSS
# notes: expressed in CHO cells
# B28: antibody 7 (antibody, V domains shown)
# VH: EVQVVESGGGLVQAGGSLRLSCAASGRTFSNYNVGWFRQAPGKEREFLATISESGGSTYYADSVKGRFTISRDNGINMVYLQMSSLKPEDTAVYYCAESRIFSFSYADGRGYAYWGQGTQVTVFS
# notes: expressed in CHO cells
# B29: antibody 8 (antibody, V domains shown)
# VH: QVQLVESGGGLVQTGDSLRLSCAASGRTYDNYAMGWFRQAPGKEREFVAAFSQNGGRTDYADSVKGRFAISDDRSTVHLDMNSLLPEDTAVYYCAARPPAYFSNAVYSKVDEYRYWGQGTQVTVSS
# notes: expressed in CHO cells
# B30: antibody 9 (antibody, V domains shown)
# VH: QVQLVESGGGSVQAGGSLRLSCAASGRTFSDYVMGWFRQAPGKEREFVGTITRIGGMPYYADFVKGRFTISRDYAKNAGYLQLNNLKPEDTALYYCALDLRLRLGVTPREYDYWGQGTQVTVSS
# notes: expressed in CHO cells
# Biological target: T1, human NKp30-his protein (KACTUS; Cat: …)
# Assay: ELISA, Human-NKp30-His coated at 0.2 µg/mL, antibody from 10 µg/mL in 3-fold steps, goat anti-human Fc, OD450 (Example 11)
# Protocol: (§1) Human-NKp30-His (purchased from KACTUS, item No. NKP-HM430) was diluted to 0.2 μg/mL with the coating solution (1×PBS, pH 7.4), and was coated into 96-well enzyme-labelled plates at 100 μL/well and allowed to stand overnight at 4° C. The coating solution was poured off, the plate was washed with 1×PBST at 300 μL/well, washed with a plate washer for 4 times, and patted dry on a plate paper. The plate was blocked with 3% skimmed milk powder at 300 μL/well, and incubated at 37° C. for 1 h. The blocking solution was poured off, washed with a plate washer for 4 times, and patted dry on a plate paper. The reference product and the test product were diluted with 3% skimmed milk powder to 10 μg/mL, and the initial concentration was diluted by 3 times. A total of 11 gradients were diluted, and another blank well was set, and only diluent was added. It was incubated at 37° C. and 100 μL/well for 1 h. Liquid in the wells was discarded, and washed with a plate washer for 4 times, and patted dry on a plate paper. The goat anti-human Fc was diluted with 3% skimmed milk powder at 1: 20,000 and 100 μL/well, and incubated at 37° C. for 1 h. The plate was washed with a plate washer for 6 times, and patted dry on a plate paper. TMB color developing solution was added at 100 μL/well, and wrapped with an aluminum foil, and the color was developed at 37° C. for 8 minutes, protected from light. The termination solution 1 M HCl was added at 100 μL/well to terminate the color development reaction. It was read at 450 nm on an enzyme-labeled instrument.
row,Binder,EC50 [µg/mL]
1,B1,0.0348
2,B2,0.0105
3,B3,0.00719
4,B4,0.00522
5,B5,0.378
6,B6,0.0246
7,B7,0.0118
8,B8,0.0104

# Biological target: T1, human NKp30-his protein (KACTUS; Cat: …)
# Assay: BLI (Octet Red96e), method of Example 6: antibody on AHC sensor, human NKp30-his in solution
# Protocol: (§2) After equilibration of the AHC sensor with 0.02% PBST (0.02% Tween 20, pH 7.4, 1*PBS) as buffer for 60 s, the NKp30 antibody in the sample plate was immobilized for 300 s and second equilibration was performed for 180 s. […] human NKp30-his protein (KACTUS; Cat: NKP-HM430) was bound with NKp30 antibody for 300 s and then dissociated for 600 s. After dissociation, 10 mM glycine (pH 2.0) was used as regeneration buffer to regenerate for 30 s.
# The affinity of the CDR-modified and humanized antibodies was tested according to the method of Example 6, and the results are shown in Table 4.
row,Binder,Kd [nM]
1,B9,1.3

# Biological target: T1, human NKp30-his protein (KACTUS; Cat: …)
# Assay: ELISA, Human-NKp30-His coated at 0.2 µg/mL, antibody from 10 µg/mL in 3-fold steps, goat anti-human Fc, OD450 (Example 11)
# Remark: another data set of the same source
# Protocol: as §1
row,Binder,EC50 [µg/mL]
1,B10,0.00227

# Biological target: T1, human NKp30-his protein (KACTUS; Cat: …)
# Assay: BLI (Octet Red96e), antibody captured on AHC sensor, 100 nM human NKp30-his in solution, 1:1 fit
# Protocol: as §2
# Subtract the result plot for reference channel H1 from the test result plot. The experimental data fit the 1:1 binding model. The molecular weight of 35 kDa was used to calculate the molar concentration of human NKp30 protein.
row,Binder,Kd [nM]
1,B4,0.201
2,B11,1.46
3,B12,3.06
4,B13,0.491
5,B14,1.81
6,B15,0.433
7,B16,0.597
8,B17,1.35
9,B18,0.347
10,B19,0.997
11,B20,1.26
12,B21,1.25
13,B22,20.1
14,B23,2.31
15,B24,2.07
16,B25,4.97
17,B26,104
18,B27,2.88
19,B28,9.64
20,B29,9.11
21,B30,5.56
